± gives the uncertainty stated by the source.
Test: abundance fitness (aPCA) (normalised: wild type 0, dead -1); higher = more abundant; growth selection in yeast, the domain comes from the species named
Details: Homo sapiens

Substance	abundance fitness
Scaffold attachment factor B1 L34D, Q15424	-0.632 ± 0.081
Scaffold attachment factor B1 L34E, Q15424	-0.719 ± 0.084
Scaffold attachment factor B1 L34F, Q15424	-0.212 ± 0.06
Scaffold attachment factor B1 L34G, Q15424	-0.576 ± 0.056
Scaffold attachment factor B1 L34I, Q15424	-0.433 ± 0.096
Scaffold attachment factor B1 L34M, Q15424	-0.067 ± 0.083
Scaffold attachment factor B1 L34N, Q15424	-0.496 ± 0.078
Scaffold attachment factor B1 L34P, Q15424	-0.619 ± 0.074
Scaffold attachment factor B1 L34Q, Q15424	-0.527 ± 0.087
Scaffold attachment factor B1 L34R, Q15424	-0.554 ± 0.053
Scaffold attachment factor B1 L34S, Q15424	-0.433 ± 0.065
Scaffold attachment factor B1 L34T, Q15424	-0.452 ± 0.066
Scaffold attachment factor B1 L34V, Q15424	-0.738 ± 0.058
Scaffold attachment factor B1 L34W, Q15424	-0.375 ± 0.075
Scaffold attachment factor B1 L34Y, Q15424	-0.316 ± 0.056
Scaffold attachment factor B1 L39A, Q15424	-0.556 ± 0.062
Scaffold attachment factor B1 L39C, Q15424	-0.745 ± 0.074
Scaffold attachment factor B1 L39D, Q15424	-1.12 ± 0.13
Scaffold attachment factor B1 L39E, Q15424	-0.753 ± 0.06
Scaffold attachment factor B1 L39F, Q15424	-0.665 ± 0.089
Scaffold attachment factor B1 L39G, Q15424	-0.814 ± 0.052
Scaffold attachment factor B1 L39H, Q15424	-0.766 ± 0.12

Substance	abundance fitness
Scaffold attachment factor B1 L39I, Q15424	-0.264 ± 0.1
Scaffold attachment factor B1 L39K, Q15424	-0.996 ± 0.072
Scaffold attachment factor B1 L39M, Q15424	-0.304 ± 0.076
Scaffold attachment factor B1 L39N, Q15424	-0.87 ± 0.066
Scaffold attachment factor B1 L39P, Q15424	-0.77 ± 0.1
Scaffold attachment factor B1 L39Q, Q15424	-0.764 ± 0.072
Scaffold attachment factor B1 L39R, Q15424	-0.894 ± 0.05
Scaffold attachment factor B1 L39S, Q15424	-0.877 ± 0.056
Scaffold attachment factor B1 L39T, Q15424	-0.983 ± 0.091
Scaffold attachment factor B1 L39Y, Q15424	-0.824 ± 0.093
Scaffold attachment factor B1 L43A, Q15424	-0.225 ± 0.066
Scaffold attachment factor B1 L43C, Q15424	-0.123 ± 0.068
Scaffold attachment factor B1 L43D, Q15424	-0.858 ± 0.1
Scaffold attachment factor B1 L43E, Q15424	-0.761 ± 0.08
Scaffold attachment factor B1 L43F, Q15424	-1.21 ± 0.073
Scaffold attachment factor B1 L43G, Q15424	-0.752 ± 0.05
Scaffold attachment factor B1 L43I, Q15424	-1.02 ± 0.091
Scaffold attachment factor B1 L43K, Q15424	-0.9 ± 0.095
Scaffold attachment factor B1 L43M, Q15424	-0.402 ± 0.075
Scaffold attachment factor B1 L43N, Q15424	-0.936 ± 0.13
Scaffold attachment factor B1 L43P, Q15424	-1.1 ± 0.11
Scaffold attachment factor B1 L43Q, Q15424	-0.911 ± 0.063

Substance	abundance fitness
Scaffold attachment factor B1 L43S, Q15424	-0.653 ± 0.059
Scaffold attachment factor B1 L43V, Q15424	-0.714 ± 0.06
Scaffold attachment factor B1 L43W, Q15424	-1.09 ± 0.083
Scaffold attachment factor B1 L43Y, Q15424	-1.22 ± 0.07
Scaffold attachment factor B1 L57A, Q15424	-0.462 ± 0.062
Scaffold attachment factor B1 L57D, Q15424	-0.202 ± 0.061
Scaffold attachment factor B1 L57F, Q15424	-1.21 ± 0.1
Scaffold attachment factor B1 L57G, Q15424	-0.759 ± 0.069
Scaffold attachment factor B1 L57H, Q15424	-0.842 ± 0.1
Scaffold attachment factor B1 L57I, Q15424	-0.32 ± 0.077
Scaffold attachment factor B1 L57K, Q15424	-0.598 ± 0.088
Scaffold attachment factor B1 L57M, Q15424	-0.272 ± 0.074
Scaffold attachment factor B1 L57N, Q15424	-0.521 ± 0.067
Scaffold attachment factor B1 L57P, Q15424	-0.62 ± 0.074
Scaffold attachment factor B1 L57Q, Q15424	-0.527 ± 0.074
Scaffold attachment factor B1 L57R, Q15424	-0.754 ± 0.054
Scaffold attachment factor B1 L57S, Q15424	-0.584 ± 0.052
Scaffold attachment factor B1 L57V, Q15424	-0.417 ± 0.065
Scaffold attachment factor B1 L57W, Q15424	-1.37 ± 0.1
Scaffold attachment factor B1 L57Y, Q15424	-1.23 ± 0.095
Scaffold attachment factor B1 L61C, Q15424	-0.41 ± 0.055
Scaffold attachment factor B1 L61D, Q15424	-0.615 ± 0.086

Substance	abundance fitness
Scaffold attachment factor B1 L61E, Q15424	-0.484 ± 0.06
Scaffold attachment factor B1 L61F, Q15424	-0.299 ± 0.067
Scaffold attachment factor B1 L61G, Q15424	-0.511 ± 0.051
Scaffold attachment factor B1 L61H, Q15424	-0.611 ± 0.085
Scaffold attachment factor B1 L61I, Q15424	-0.614 ± 0.12
Scaffold attachment factor B1 L61K, Q15424	-0.788 ± 0.12
Scaffold attachment factor B1 L61M, Q15424	-0.336 ± 0.083
Scaffold attachment factor B1 L61N, Q15424	-0.716 ± 0.13
Scaffold attachment factor B1 L61P, Q15424	-0.583 ± 0.09
Scaffold attachment factor B1 L61R, Q15424	-0.644 ± 0.057
Scaffold attachment factor B1 L61S, Q15424	-0.508 ± 0.062
Scaffold attachment factor B1 L61T, Q15424	-0.393 ± 0.078
Scaffold attachment factor B1 L61V, Q15424	-0.311 ± 0.065
Scaffold attachment factor B1 L61W, Q15424	-0.649 ± 0.052
Scaffold attachment factor B1 L61Y, Q15424	-0.351 ± 0.072
Scaffold attachment factor B1 M58A, Q15424	-0.224 ± 0.063
Scaffold attachment factor B1 M58C, Q15424	-0.289 ± 0.083
Scaffold attachment factor B1 M58D, Q15424	-0.582 ± 0.078
Scaffold attachment factor B1 M58F, Q15424	-0.204 ± 0.075
Scaffold attachment factor B1 M58G, Q15424	-0.368 ± 0.056
Scaffold attachment factor B1 M58H, Q15424	-0.344 ± 0.079
Scaffold attachment factor B1 M58I, Q15424	-0.151 ± 0.071

Substance	abundance fitness
Scaffold attachment factor B1 M58K, Q15424	-0.253 ± 0.086
Scaffold attachment factor B1 M58L, Q15424	-0.106 ± 0.058
Scaffold attachment factor B1 M58N, Q15424	-0.37 ± 0.097
Scaffold attachment factor B1 M58P, Q15424	-0.598 ± 0.1
Scaffold attachment factor B1 M58R, Q15424	-0.205 ± 0.059
Scaffold attachment factor B1 M58S, Q15424	-0.16 ± 0.064
Scaffold attachment factor B1 M58V, Q15424	-0.114 ± 0.064
Scaffold attachment factor B1 M58W, Q15424	-0.439 ± 0.069
Scaffold attachment factor B1 M58Y, Q15424	-0.341 ± 0.079
Scaffold attachment factor B1 N47A, Q15424	-0.236 ± 0.056
Scaffold attachment factor B1 N47C, Q15424	-0.274 ± 0.073
Scaffold attachment factor B1 N47D, Q15424	-0.167 ± 0.085
Scaffold attachment factor B1 N47E, Q15424	-0.168 ± 0.074
Scaffold attachment factor B1 N47H, Q15424	-0.349 ± 0.076
Scaffold attachment factor B1 N47I, Q15424	-0.822 ± 0.09
Scaffold attachment factor B1 N47K, Q15424	-0.349 ± 0.1
Scaffold attachment factor B1 N47L, Q15424	-0.365 ± 0.061
Scaffold attachment factor B1 N47M, Q15424	-0.224 ± 0.073
Scaffold attachment factor B1 N47P, Q15424	-1.01 ± 0.11
Scaffold attachment factor B1 N47Q, Q15424	-0.227 ± 0.067
Scaffold attachment factor B1 N47R, Q15424	-0.207 ± 0.065
Scaffold attachment factor B1 N47S, Q15424	-0.236 ± 0.07
